Measurements: the MegaScale stability set (Tsuboyama et al. 2023)

B1: 2M8U (parent)
chain: TKAQVIEAFKVFDRDGNGYVTVDYLRKVLNELGDMMPADEIEEMIYEADPQNSGYVQYETFVGMLFL

Variants of: B1
Assay: folding stability dG (cDNA display proteolysis); higher = more stable
Settings: PBS, room temperature

Variant	folding stability dG [kcal/mol]
E59Y	3.82
E59T	3.12
E59D	2.99
F61K	1.35
F61I	3.6
F61T	1.87
F61M	2.31
F61A	2.41
F61N	1.32
F61G	0.903
F61V	3.46
F61E	0.86
F61C	2.13
F61D	0.727
F61S	1.33
F61P	0.783
F61H	1.1
F61W	2.62
F61L	2.65
F61Q	1.17
F61Y	2.17
F61R	1.29
G63C	3.58
G63Q	3.47

Variant	folding stability dG [kcal/mol]
G63F	3.29
G63I	3.41
G63N	3.97
G63P	2.16
G63L	3.36
G63W	3.31
G63R	3.54
G63H	3.72
G63E	4.11
G63K	3.45
G63D	4.19
G63V	3.42
G63M	3.79
G63A	3.66
G63S	3.63
G63T	3.77
G63Y	3.48
N52E	3.38
N52Y	3.31
N52T	3.32
N52Q	3.47
N52V	3.26
N52C	3.42
N52I	3.03

Variant	folding stability dG [kcal/mol]
N52W	3.1
N52H	3.46
N52A	3.38
N52G	3.51
N52S	3.57
N52K	3.4
N52F	3.52
N52L	3.36
N52M	3.42
N52D	3.37
N52R	3.57
N52P	2.43
Q57M	3.27
Q57R	3.13
Q57Y	3.51
Q57I	2.96
Q57L	3.08
Q57H	3.85
Q57E	3.56
Q57D	3.25
Q57G	2.69
Q57V	3.1
Q57F	3.62
Q57W	3.18

Variant	folding stability dG [kcal/mol]
Q57N	3.61
Q57K	3.2
Q57T	2.41
Q57A	3.31
Q57P	2.64
Q57C	3.25
Q57S	2.71
L65E	1.82
L65R	2.22
L65F	3.28
L65Q	1.84
L65V	2.72
L65Y	3.04
L65M	3.67
L65I	3.11
L65G	2.19
L65N	2.26
L65P	1.55
L65K	1.94
L65C	2.6
L65S	1.7
L65A	2.23
L65T	1.96
L65W	3.25

Variant	folding stability dG [kcal/mol]
L65D	1.97
L65H	2.65
L67F	3.22
L67Q	3.8
L67H	3.62
L67M	3.46
L67I	3.3
L67N	3.67
L67D	4.28
L67E	3.96
L67R	3.81
L67A	3.98
L67G	3.49
L67P	3.9
L67C	3.61
L67K	3.57
T60Q	3.55
T60I	3.58
T60F	3.32
T60S	3.6
T60E	3.61
T60D	3.42
T60K	3.72
T60A	3.63

Variant	folding stability dG [kcal/mol]
T60W	3.58
T60C	3.43
T60Y	3.43
T60R	3.68
T60V	3.31
T60H	3.66
T60P	3.52
T60L	3.72
T60M	3.44
Y58I	3.25
Y58F	2.81
Y58G	1.62
Y58D	1.3
Y58M	2.46
Y58T	2.02
Y58R	1.77
Y58L	2.51
Y58N	1.27
Y58P	1.71
Y58H	1.99
Y58W	3.45
Y58S	2.04
Y58Q	1.77
Y58K	1.56

Variant	folding stability dG [kcal/mol]
Y58V	2.67
Y58A	2.11
Y58E	1.4
Y58C	2.07
Q51N	3.46
Q51H	3.54
Q51V	3.34
Q51M	3.49
Q51Y	3.62
Q51G	3.43
Q51P	2.52
Q51K	3.45
Q51D	3.56
Q51C	3.71
Q51W	3.49
Q51I	3.31
Q51T	3.56
Q51A	3.47
Q51L	3.53
Q51S	3.49
Q51R	3.3
Q51F	3.58
Q51E	3.48
